From doi:10.1101/2025.02.11.637337 (bioRxiv, 2025)

B1: Fr-H6(E53H/E56H/E57H/R59H/E60H/E63H) (natural protein, horse)
chain: SSQIRQNYSTEVEAAVNRLVNLYLRASYTYLSLGFYFDRDDVALEGVCHFFRHLAHHKHHGAHRLLKMQNQRGGRALFQDLQKPSQDEWGTTLDAMKAAIVLEKSLNQALLDLHALGSAQADPHLCDFLESHFLDEEVKLIKKMGDHLTNIQRLVGSQAGLGEYLFERLTLKHD
B2: Fr-H4ex(E53H/E57H/E60H/R64H) (natural protein, horse)
chain: SSQIRQNYSTEVEAAVNRLVNLYLRASYTYLSLGFYFDRDDVALEGVCHFFRHLAEHKRHGAEHLLKMQNQRGGRALFQDLQKPSQDEWGTTLDAMKAAIVLEKSLNQALLDLHALGSAQADPHLCDFLESHFLDEEVKLIKKMGDHLTNIQRLVGSQAGLGEYLFERLTLKHD
B3: Fr-H4in(R52H/E56H/R59H/E63H) (natural protein, horse)
chain: SSQIRQNYSTEVEAAVNRLVNLYLRASYTYLSLGFYFDRDDVALEGVCHFFHELAHEKHEGAHRLLKMQNQRGGRALFQDLQKPSQDEWGTTLDAMKAAIVLEKSLNQALLDLHALGSAQADPHLCDFLESHFLDEEVKLIKKMGDHLTNIQRLVGSQAGLGEYLFERLTLKHD
B4: Fr-H2(E53H/E57H) (natural protein, horse)
chain: SSQIRQNYSTEVEAAVNRLVNLYLRASYTYLSLGFYFDRDDVALEGVCHFFRHLAEHKREGAERLLKMQNQRGGRALFQDLQKPSQDEWGTTLDAMKAAIVLEKSLNQALLDLHALGSAQADPHLCDFLESHFLDEEVKLIKKMGDHLTNIQRLVGSQAGLGEYLFERLTLKHD
B5: Fr-H8(R52H/E53H/E56H/E57H/R59H/E60H/E63H/R64H) (natural protein, horse)
chain: SSQIRQNYSTEVEAAVNRLVNLYLRASYTYLSLGFYFDRDDVALEGVCHFFHHLAHHKHHGAHHLLKMQNQRGGRALFQDLQKPSQDEWGTTLDAMKAAIVLEKSLNQALLDLHALGSAQADPHLCDFLESHFLDEEVKLIKKMGDHLTNIQRLVGSQAGLGEYLFERLTLKHD

How the values were obtained:
crystal structure = molecular target: the molecule itself; assay: crystal structure
SEC + native gel or EMSA = molecular target: the molecule itself; assay: SEC + native gel or EMSA

| Protein | stoichiometry N (crystal structure) | stoichiometry N (SEC + native gel or EMSA) |
| --- | --- | --- |
| B1 | 24 | – |
| B2 | – | 24 |
| B3 | – | 24 |
| B4 | – | 24 |
| B5 | 24 | – |
